Results published in publication PMC4629521.

How the values were obtained:
[1] = target: P1Ara, TOMP1 partially dearabinosylated by alpha-L-arabinofuranosidase (tomato); assay: cross-linking + SEC
[2] = target: P1pH2, TOMP1 partially dearabinosylated by pH 2.0 HCl (tomato); assay: cross-linking + SEC
Q9FS16 = assay: cross-linking + SEC
[3] = target: RSH, monomeric extensin from Arabidopsis (native) (Arabidopsis) (UniProt Q9FS16); assay: cross-linking + SEC
[4] = target: RSHAra, RSH partially dearabinosylated by alpha-L-arabinofuranosidase (Arabidopsis) (UniProt Q9FS16); assay: cross-linking + SEC
[5] = target: RSHpH2, RSH partially dearabinosylated by pH 2.0 HCl (Arabidopsis) (UniProt Q9FS16); assay: cross-linking + SEC
[6] = target: TOMP1, tomato extensin precursor 1 (native) (tomato); assay: cross-linking + SEC

P1Ara, TOMP1 partially dearabinosylated by alpha-L-arabinofuranosidase
monomer peak area loss (5~30 min XL) (cross-linking + SEC): 24.9%

P1Ara, TOMP1 partially dearabinosylated by alpha-L-arabinofuranosidase (natural protein)
initial cross-linking rate [1]: 28.5 µg/mL⋅min

P1pH2, TOMP1 partially dearabinosylated by pH 2.0 HCl
monomer peak area loss (5~30 min XL) (cross-linking + SEC): 54.2%

P1pH2, TOMP1 partially dearabinosylated by pH 2.0 HCl (natural protein)
initial cross-linking rate [2]: 95.3 µg/mL⋅min

RSH, monomeric extensin from Arabidopsis (native)
monomer peak area loss (5~30 min XL) (Q9FS16): 80.3%

RSH, monomeric extensin from Arabidopsis (native) (from UniProt Q9FS16 28-431) (natural protein)
initial cross-linking rate [3]: 269 µg/mL⋅min

RSHAra, RSH partially dearabinosylated by alpha-L-arabinofuranosidase
monomer peak area loss (5~30 min XL) (Q9FS16): 40.1%

RSHAra, RSH partially dearabinosylated by alpha-L-arabinofuranosidase (from UniProt Q9FS16 28-431) (natural protein)
initial cross-linking rate [4]: 85 µg/mL⋅min

RSHpH2, RSH partially dearabinosylated by pH 2.0 HCl
monomer peak area loss (5~30 min XL) (Q9FS16): 74.2%

RSHpH2, RSH partially dearabinosylated by pH 2.0 HCl (from UniProt Q9FS16 28-431) (natural protein)
initial cross-linking rate [5]: 223 µg/mL⋅min

TOMP1, tomato extensin precursor 1 (native)
monomer peak area loss (5~30 min XL) (cross-linking + SEC): 73.9%

TOMP1, tomato extensin precursor 1 (native) (natural protein)
initial cross-linking rate [6]: 213 µg/mL⋅min
